Biological target: human SIRPα (signal regulatory protein alpha), full-length (human) (UniProt P78324)
Assay: cell-based or functional assay

human SIRPα (signal regulatory protein alpha), full-length (human), sequence (P78324 31-504): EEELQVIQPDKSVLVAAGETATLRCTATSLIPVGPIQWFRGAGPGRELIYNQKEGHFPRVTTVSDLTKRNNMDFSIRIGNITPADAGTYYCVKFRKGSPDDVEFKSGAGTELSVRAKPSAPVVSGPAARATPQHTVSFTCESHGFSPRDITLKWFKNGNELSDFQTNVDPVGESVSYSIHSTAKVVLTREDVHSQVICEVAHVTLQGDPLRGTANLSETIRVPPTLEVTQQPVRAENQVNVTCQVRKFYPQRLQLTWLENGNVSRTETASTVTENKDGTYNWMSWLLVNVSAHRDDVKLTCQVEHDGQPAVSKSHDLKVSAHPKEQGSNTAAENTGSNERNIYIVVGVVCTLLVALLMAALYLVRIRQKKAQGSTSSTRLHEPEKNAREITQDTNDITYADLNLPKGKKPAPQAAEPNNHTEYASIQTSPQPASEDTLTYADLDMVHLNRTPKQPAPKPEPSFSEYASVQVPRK

inhibition of FSL-1 mediated TNF-α production of human DCs by hCD47-hFc immobilized on anti-human Fc coated plates: 78 ng/mL | inhibition of SAC-induced IL-23 secretion in human DCs: 11 ng/mL
Substance: hCD47-hFc (human CD47 extracellular Ig-V domain fused to the Fc region of human IgG1), Example 8 (from UniProt Q08722 19-142) (Fc fusion)

— patent US20100239579A1
